Reference: article PMC9482650, “Quantitative fragmentomics allow affinity mapping of interactomes” (Nature Communications, 2022)

Tests used:
Experiment in all cases: holdup assay
Set-up in all cases: key: below the threshold = too weak to quantify, mostly under pKd 3.1 to 4
Settings in all cases: plain residues with an end cap or a label only (N-terminal biotin on a linker: ado-ado)
[1] = biological target: Inadl_4, Q8NI35
[2] = biological target: LNX1_3, Q8TBB1
[3] = biological target: T1, PDZRN3_1, Q9UPQ7
T1 sequence (Q9UPQ7 244-349, limits assumed, looked up): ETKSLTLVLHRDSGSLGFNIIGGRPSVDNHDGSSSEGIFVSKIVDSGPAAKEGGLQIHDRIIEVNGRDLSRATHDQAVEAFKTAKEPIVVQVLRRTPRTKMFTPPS

[4] = biological target: Inadl_9, Q8NI35
[5] = biological target: GORASP1, Q9BQQ3
[6] = biological target: Inadl_1, Q8NI35
[7] = biological target: FRMPD4, Q14CM0
[8] = biological target: T2, DLG3_3, Q92796
T2 sequence (Q92796 374-475, limits assumed, looked up): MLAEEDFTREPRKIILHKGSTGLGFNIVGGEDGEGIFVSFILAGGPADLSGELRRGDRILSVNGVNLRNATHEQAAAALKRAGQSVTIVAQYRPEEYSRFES

[9] = biological target: MAGI1_2, Q96QZ7
[10] = biological target: DLG4_3, P78352
[11] = biological target: AHNAK1, Q09666
[12] = biological target: TJP1_3, Q07157
[13] = biological target: T3, NHERF3_4, Q5T2W1
T3 sequence (Q5T2W1 373-468, limits assumed, looked up): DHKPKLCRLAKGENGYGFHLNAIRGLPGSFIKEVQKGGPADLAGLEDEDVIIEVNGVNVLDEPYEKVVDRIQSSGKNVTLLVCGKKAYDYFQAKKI

[14] = biological target: NOS1, P29475
[15] = biological target: IL16_3, Q14005
[16] = biological target: T4, SHANK1, Q9Y566
T4 sequence (Q9Y566 658-767, limits assumed, looked up): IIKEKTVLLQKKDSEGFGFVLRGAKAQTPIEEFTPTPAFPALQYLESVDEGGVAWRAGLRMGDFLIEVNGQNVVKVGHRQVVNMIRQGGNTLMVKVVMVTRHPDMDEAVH

[17] = biological target: T5, LRRC7, Q96NW7
T5 sequence (Q96NW7 1440-1537, limits assumed, looked up): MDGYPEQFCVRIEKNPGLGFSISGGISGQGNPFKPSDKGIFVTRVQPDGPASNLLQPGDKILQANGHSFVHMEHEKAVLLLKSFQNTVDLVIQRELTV

[18] = biological target: T6, PDZD2_2, O15018
T6 sequence (O15018 329-429, limits assumed, looked up): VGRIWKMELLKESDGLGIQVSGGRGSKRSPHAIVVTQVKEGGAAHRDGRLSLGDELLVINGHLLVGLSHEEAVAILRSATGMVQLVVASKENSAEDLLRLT

[19] = biological target: SNX27, Q96L92
[20] = biological target: T7, LNX2_3, Q8N448
T7 sequence (Q8N448 463-564, limits assumed, looked up): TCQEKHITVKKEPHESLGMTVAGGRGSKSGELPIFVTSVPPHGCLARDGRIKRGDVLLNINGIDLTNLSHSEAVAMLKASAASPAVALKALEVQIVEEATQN

[21] = biological target: FRMPD2_3, Q68DX3
[22] = biological target: T8, SIPA1L2, Q9P2F8
T8 sequence (Q9P2F8 945-1036, limits assumed, looked up): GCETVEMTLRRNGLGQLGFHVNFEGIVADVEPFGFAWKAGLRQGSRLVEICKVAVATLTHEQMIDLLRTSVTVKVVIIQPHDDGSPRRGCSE

[23] = biological target: Inadl_5, Q8NI35
[24] = biological target: LIMK2, P53671
[25] = biological target: GIPC2, Q8TF65
[26] = biological target: GRID2IP_2, A4D2P6
[27] = biological target: T9, APBA3_1, O96018
T9 sequence (O96018 389-490, limits assumed, looked up): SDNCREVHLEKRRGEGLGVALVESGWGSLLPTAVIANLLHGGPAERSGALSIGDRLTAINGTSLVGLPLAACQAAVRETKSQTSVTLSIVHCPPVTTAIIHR

[28] = biological target: NHERF4_4, Q86UT5
[29] = biological target: DLG5_1, Q8TDM6

Measured: pKd

Chain of DLG4_3, P78352 (P78352 306-403): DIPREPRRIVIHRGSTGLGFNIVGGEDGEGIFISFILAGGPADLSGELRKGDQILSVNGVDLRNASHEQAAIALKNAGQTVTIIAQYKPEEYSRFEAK
Chain of Inadl_5, Q8NI35 (Q8NI35 673-780): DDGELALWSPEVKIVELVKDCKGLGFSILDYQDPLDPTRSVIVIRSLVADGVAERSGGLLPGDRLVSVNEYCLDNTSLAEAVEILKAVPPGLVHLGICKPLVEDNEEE
Chain of FRMPD4, Q14CM0 (Q14CM0 67-160): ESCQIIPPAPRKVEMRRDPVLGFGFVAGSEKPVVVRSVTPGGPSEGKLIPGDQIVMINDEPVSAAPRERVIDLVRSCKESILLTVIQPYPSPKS
Chain of Inadl_1, Q8NI35 (Q8NI35 113-229): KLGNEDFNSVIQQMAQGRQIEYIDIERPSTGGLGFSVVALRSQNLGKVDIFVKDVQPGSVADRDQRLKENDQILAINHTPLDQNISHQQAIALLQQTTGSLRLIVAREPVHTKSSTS
Chain of LNX1_3, Q8TBB1 (Q8TBB1 500-596): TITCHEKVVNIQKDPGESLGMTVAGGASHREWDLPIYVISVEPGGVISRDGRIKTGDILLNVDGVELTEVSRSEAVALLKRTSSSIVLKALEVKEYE
Chain of LIMK2, P53671 (P53671 143-248): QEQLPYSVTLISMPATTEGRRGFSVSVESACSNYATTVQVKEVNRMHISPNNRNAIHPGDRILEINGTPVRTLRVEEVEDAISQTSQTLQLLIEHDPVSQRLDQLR
Chain of Inadl_4, Q8NI35 (Q8NI35 547-651): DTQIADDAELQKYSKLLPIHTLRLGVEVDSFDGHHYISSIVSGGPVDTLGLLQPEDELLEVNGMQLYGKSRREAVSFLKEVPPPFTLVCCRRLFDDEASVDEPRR
Chain of GORASP1, Q9BQQ3 (Q9BQQ3 1-208): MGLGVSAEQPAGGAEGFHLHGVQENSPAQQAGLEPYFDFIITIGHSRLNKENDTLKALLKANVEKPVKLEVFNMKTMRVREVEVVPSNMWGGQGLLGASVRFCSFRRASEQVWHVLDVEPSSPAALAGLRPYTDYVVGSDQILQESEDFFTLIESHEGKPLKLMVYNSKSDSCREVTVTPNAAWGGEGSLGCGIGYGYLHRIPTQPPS
Chain of NOS1, P29475 (P29475 9-101): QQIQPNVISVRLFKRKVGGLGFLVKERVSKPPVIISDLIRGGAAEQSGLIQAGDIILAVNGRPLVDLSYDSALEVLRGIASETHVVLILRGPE
Chain of NHERF4_4, Q86UT5 (Q86UT5 464-550): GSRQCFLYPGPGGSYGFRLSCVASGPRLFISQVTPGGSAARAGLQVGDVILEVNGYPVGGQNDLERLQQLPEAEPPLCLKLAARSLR
Chain of GRID2IP_2, A4D2P6 (A4D2P6 272-370): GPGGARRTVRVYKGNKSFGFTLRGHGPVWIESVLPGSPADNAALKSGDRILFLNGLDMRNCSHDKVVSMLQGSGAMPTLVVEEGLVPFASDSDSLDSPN
Chain of TJP1_3, Q07157 (Q07157 416-512): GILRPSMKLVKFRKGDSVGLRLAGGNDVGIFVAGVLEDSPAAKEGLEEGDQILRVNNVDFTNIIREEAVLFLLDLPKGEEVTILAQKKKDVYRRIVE
Chain of IL16_3, Q14005 (Q14005 1107-1207): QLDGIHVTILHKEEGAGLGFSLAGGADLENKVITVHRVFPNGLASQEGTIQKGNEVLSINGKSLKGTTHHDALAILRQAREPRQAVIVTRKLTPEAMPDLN
Chain of Inadl_9, Q8NI35 (Q8NI35 1530-1615): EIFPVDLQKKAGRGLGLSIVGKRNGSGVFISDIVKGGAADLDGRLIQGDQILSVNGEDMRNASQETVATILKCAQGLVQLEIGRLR
Chain of GIPC2, Q8TF65 (Q8TF65 112-203): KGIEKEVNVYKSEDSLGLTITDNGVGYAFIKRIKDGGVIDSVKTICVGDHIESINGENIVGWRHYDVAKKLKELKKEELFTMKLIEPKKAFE
Chain of AHNAK1, Q09666 (Q09666 4-100): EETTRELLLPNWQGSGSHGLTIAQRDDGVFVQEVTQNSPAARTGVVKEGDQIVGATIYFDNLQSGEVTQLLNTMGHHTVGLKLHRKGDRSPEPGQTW
Chain of DLG5_1, Q8TDM6 (Q8TDM6 617-713): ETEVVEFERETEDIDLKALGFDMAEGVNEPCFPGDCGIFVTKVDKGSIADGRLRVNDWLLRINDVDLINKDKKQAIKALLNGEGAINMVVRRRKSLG
Chain of MAGI1_2, Q96QZ7 (Q96QZ7 456-580): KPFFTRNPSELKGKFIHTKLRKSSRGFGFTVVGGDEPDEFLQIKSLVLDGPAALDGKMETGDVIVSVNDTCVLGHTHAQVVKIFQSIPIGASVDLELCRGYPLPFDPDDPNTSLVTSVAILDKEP
Chain of FRMPD2_3, Q68DX3 (Q68DX3 1073-1166): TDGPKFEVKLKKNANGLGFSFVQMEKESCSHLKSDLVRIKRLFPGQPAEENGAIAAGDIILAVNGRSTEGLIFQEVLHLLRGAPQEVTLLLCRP

VRPGVKESLV [SCN4A, P35499]
4.38: [3]
5.17: [18]
3.71: [4]
4.1: [8]
3.96: [28]
3.64: [26]
4.02: [17]
3.97: [14]
4.39: [10]
5.28: [19]
4.6: [9]
below the threshold: all other assays above

TGPWKNETTV [ADGRA1, Q86SQ6]
4.48: [8]
4.24: [25]
4.02: [18]
4.67: [9]
4.61: [10]
5.43: [19]
3.9: [28]
4.07: [3]
below the threshold: all other assays above

RDFDYIADWC [PKN2, Q16513]
5.54: [18]
4.12: [14]
4.34: [4]
4.32: [19]
3.89: [12]
below the threshold: all other assays above

RRLQGTSSMV [GOLT1A, Q6ZVE7]
3.67: [5]
4.04: [9]
5.16: [18]
3.93: [26]
3.77: [14]
below the threshold: all other assays above
